Measured values: patent US20250327097A1, “ORGANISMS PRODUCING LESS CROTONIC ACID” (Global Bioenergies, priority 2021, published 2025)
Where a chain is given by its changes, count along the chain named. Names may count otherwise.

B1: I283T-P284D-N287P-S322T-N388M-K423C-C430N-L432F-L434W-S436N-A463G-Y469D (protein)
chain: MFLKSLREQINLLKRQGDLRIINRPVDSYLEAAAIIRRSTETKAPVPLMTNIKGYPGCSIVGGLAALSSNPEYPLSRVAMSLGLSTTASAQSIVQYLIDGLKKTPYLPVEIDSNSAPCKQNILRGEDASLAHFPIPQVHQHDGNRYVNTWGVFIVESPDGQWCNWSIQRVQYLNDRQMIALVFPSQHISDIWEEWVKIGKPMPYALVQGCEPIVPYIAGLPLLERNVNEAEYIGALYGKGIEVVKCETHDLRVPASSEVVIEGYFAITREGVEGPFGEFAGYTDNEPSLQPILSITAISWQDDPIWPVVAEGKPVDEYHTCTGIGDAAAIQNVLLTANLPVSFVWVPLYSACHLMIVSINRHWRQTHPDLTSEQLTKKVGDVIHQTRMSIKLPKIVVLDDDVDPADTESLLWALATRIHPERCRYFYESNIFPWLNCYSEEERHNRKGKRVIIDALLPENHGGISSFDDAYPDDIKQRVLMHWETDFSHD
B2: I283F-P284D-N287P-S322T-N388M-C430N-L432F-L434W-S436N-A463G-Y469D (protein)
chain: B1 chain with T283F, C423K
B3: I283T-P284D-N285L-N287P-S322T-N388M-C430N-L432F-L434W-S436N-A463G-Y469D (protein)
chain: B1 chain with N285L, C423K
B4: I283T-P284D-N287P-S322T-N388M-C430N-L432F-L434W-S436T-A463G-Y469D (protein)
chain: B1 chain with C423K, N436T
B5: I283T-P284D-N285A-N287P-S322T-N388M-C430N-L432F-L434W-S436N-A463G-Y469D (protein)
chain: B1 chain with N285A, C423K
B6: I283T-P284D-N285I-N287P-S322T-N388M-C430N-L432F-L434W-S436N-A463G-Y469D (protein)
chain: B1 chain with N285I, C423K
B7: K391I-L432W-L434M (protein)
chain: MFLKSLREQINLLKRQGDLRIINRPVDSYLEAAAIIRRSTETKAPVPLMTNIKGYPGCSIVGGLAALSSNPEYPLSRVAMSLGLSTTASAQSIVQYLIDGLKKTPYLPVEIDSNSAPCKQNILRGEDASLAHFPIPQVHQHDGNRYVNTWGVFIVESPDGQWCNWSIQRVQYLNDRQMIALVFPSQHISDIWEEWVKIGKPMPYALVQGCEPIVPYIAGLPLLERNVNEAEYIGALYGKGIEVVKCETHDLRVPASSEVVIEGYFAITREGVEGPFGEFAGYIPNENSLQPILSITAISWQDDPIWPVVAEGKPVDEYHTCSGIGDAAAIQNVLLTANLPVSFVWVPLYSACHLMIVSINRHWRQTHPDLTSEQLTKKVGDVIHQTRNSIILPKIVVLDDDVDPADTESLLWALATRIHPERKRYFYESCIWPMLSCYSEEERHNRKGKRVIIDALLPENHGAISSFDYAYPDDIKQRVLMHWETDFSHD
B8: N388M-K394H-C430P-L432F-L434W-S436N (protein)
chain: B7 chain with N388M, I391K, K394H, C430P, W432F, M434W, S436N
B9: N388M-K394A-C430P-L432F-L434W-S436N (protein)
chain: B7 chain with N388M, I391K, K394A, C430P, W432F, M434W, S436N
B10: N388M-K394R-C430P-L432F-L434W-S436A (protein)
chain: B7 chain with N388M, I391K, K394R, C430P, W432F, M434W, S436A
B11: N388M-K394R-L432F-L434W-S436N (protein)
chain: B7 chain with N388M, I391K, K394R, W432F, M434W, S436N
B12: N388M-K394R-L432F-L434W-S436A (protein)
chain: B7 chain with N388M, I391K, K394R, W432F, M434W, S436A
B13: N388M-K394R-C430K-L432F-L434W-S436N (protein)
chain: B7 chain with N388M, I391K, K394R, C430K, W432F, M434W, S436N
B14: C430S-L432F-L434W-S436N (protein)
chain: B7 chain with I391K, C430S, W432F, M434W, S436N
B15: K394R-L432F-L434W-S436A (protein)
chain: B7 chain with I391K, K394R, W432F, M434W, S436A
B16: N388M-C430P-L432F-L434W-S436A (protein)
chain: B7 chain with N388M, I391K, C430P, W432F, M434W, S436A
B17: C430S-L432F-L434W (protein)
chain: B7 chain with I391K, C430S, W432F, M434W
B18: N388M-K394R-C430S-L432F-L434W-S436A (protein)
chain: B7 chain with N388M, I391K, K394R, C430S, W432F, M434W, S436A
B19: K394R-C430S-L432F-L434W-S436A (protein)
chain: B7 chain with I391K, K394R, C430S, W432F, M434W, S436A
B20: L432F-L434W-S436A (protein)
chain: B7 chain with I391K, W432F, M434W, S436A
B21: N388M-C430S-L432F-L434W-S436A (protein)
chain: B7 chain with N388M, I391K, C430S, W432F, M434W, S436A
B22: N388M-L432F-L434W-S436A (protein)
chain: B7 chain with N388M, I391K, W432F, M434W, S436A
B23: K394R-C430P-L432F-L434W-S436A (protein)
chain: B7 chain with I391K, K394R, C430P, W432F, M434W, S436A
B24: K394R-L432F-L434W (protein)
chain: B7 chain with I391K, K394R, W432F, M434W
B25: N388M-K394R-C430S-L432F-L434W-S436N (protein)
chain: B7 chain with N388M, I391K, K394R, C430S, W432F, M434W, S436N
B26: R387A-L432F-L434W-S436A (protein)
chain: B7 chain with R387A, I391K, W432F, M434W, S436A
B27: K394R-L432F-L434W-S436N (protein)
chain: B7 chain with I391K, K394R, W432F, M434W, S436N
B28: N388M-L432F-L434W (protein)
chain: B7 chain with N388M, I391K, W432F, M434W
B29: N388M-C430P-L432F-L434W-S436N (protein)
chain: B7 chain with N388M, I391K, C430P, W432F, M434W, S436N
B30: N388M-K394R-C430N-L432F-L434W-S436N (protein)
chain: B7 chain with N388M, I391K, K394R, C430N, W432F, M434W, S436N
B31: N388M-C430S-L432F-L434W-S436N (protein)
chain: B7 chain with N388M, I391K, C430S, W432F, M434W, S436N
B32: N388M-K394R-I395V-C430P-L432F-L434W-S436N (protein)
chain: B7 chain with N388M, I391K, K394R, I395V, C430P, W432F, M434W, S436N
B33: K394R-C430P-L432F-L434W-S436N (protein)
chain: B7 chain with I391K, K394R, C430P, W432F, M434W, S436N
B34: N388M-C430A-L432F-L434W-S436N (protein)
chain: B7 chain with N388M, I391K, C430A, W432F, M434W, S436N
B35: C430P-L432F-L434W-S436A (protein)
chain: B7 chain with I391K, C430P, W432F, M434W, S436A
B36: N388M-K394C-C430P-L432F-L434W-S436N (protein)
chain: B7 chain with N388M, I391K, K394C, C430P, W432F, M434W, S436N
B37: C430P-L432F-L434W-S436N (protein)
chain: B7 chain with I391K, C430P, W432F, M434W, S436N
B38: N388M-K394R-C430P-L432F-L434W-S436N (protein)
chain: B7 chain with N388M, I391K, K394R, C430P, W432F, M434W, S436N
B39: N388M-L432F-L434W-S436N (protein)
chain: B7 chain with N388M, I391K, W432F, M434W, S436N
B40: K394R-C430S-L432F-L434W-S436N (protein)
chain: B7 chain with I391K, K394R, C430S, W432F, M434W, S436N
B41: H141Y-N388M-K394R-C430P-L432F-L434W-S436N (protein)
chain: B7 chain with H141Y, N388M, I391K, K394R, C430P, W432F, M434W, S436N
B42: L432F-L434W-S436N (protein)
chain: B7 chain with I391K, W432F, M434W, S436N
B43: C430S-L432F-L434W-S436A (protein)
chain: B7 chain with I391K, C430S, W432F, M434W, S436A

Tested on: 3-methylcrotonic acid
Type: biochemical, Yersinia frederiksenii
Parameters: key: “+” representing a low increase in activity; “++++” representing a high increase in activity

Molecule	Activity relative to WT
B1	++++
B2	++++
B3	++++
B4	++++
B5	++++
B6	++++
B7	+
B8	+
B9	+
B10	+
B11	+
B12	+
B13	+
B14	+
B15	+
B16	+
B17	+
B18	+
B19	+
B20	+
B21	+
B22	+

Molecule	Activity relative to WT
B23	+
B24	+
B25	+
B26	+
B27	+
B28	+
B29	+
B30	+
B31	+
B32	+
B33	+
B34	+
B35	+
B36	+
B37	+
B38	+
B39	+
B40	+
B41	+
B42	+
B43	+
